We go through 18 molecules from publication PMC10544015 (Journal of Medicinal Chemistry, 2023).

“Also recorded” adds a separate entry of the source. Where two headings read alike, the source gives them in different places. Bridge positions count the residues as written; N and C are the ends. Square brackets hold non-standard residues; d marks the D form. Triazole bridges read from a SMILES are 1,4-linked. Peptide text beside a SMILES is read from it. Lys(N3) = [N-]=[N+]=NCCCC[C@H](N)C(=O)O; Orn(N3) = [N-]=[N+]=NCCC[C@H](N)C(=O)O; Hpra = C#CCC[C@H](N)C(=O)O; Pra = C#CC[C@H](N)C(=O)O; Ahx = NCCCCCC(=O)O

One data set in a line: human plasma. Particulars: 37 °C.
A further data set is described as follows: circular dichroism. Particulars: PBS (10 mM phosphate, 137 mM NaCl, 2.7 mM KCl); pH 7.4; rt °C; 100 uM.
Data set [1] addresses Panx1 channels (Mus musculus, UniProt Q9JIP4). The experiment in a line: HOS-induced ATP release assay in B16-BL6 cells. The settings on record: B16-BL6, read-out: % ATP release inhibition at 100µM (in B16-BL6 cells).
Data set [2] deals with T1, Panx1 channels (Homo sapiens, UniProt Q96RD7).
T1 construct: host or cells: EA.hy926 human endothelial cells
T1 sequence (Q96RD7 whole entry): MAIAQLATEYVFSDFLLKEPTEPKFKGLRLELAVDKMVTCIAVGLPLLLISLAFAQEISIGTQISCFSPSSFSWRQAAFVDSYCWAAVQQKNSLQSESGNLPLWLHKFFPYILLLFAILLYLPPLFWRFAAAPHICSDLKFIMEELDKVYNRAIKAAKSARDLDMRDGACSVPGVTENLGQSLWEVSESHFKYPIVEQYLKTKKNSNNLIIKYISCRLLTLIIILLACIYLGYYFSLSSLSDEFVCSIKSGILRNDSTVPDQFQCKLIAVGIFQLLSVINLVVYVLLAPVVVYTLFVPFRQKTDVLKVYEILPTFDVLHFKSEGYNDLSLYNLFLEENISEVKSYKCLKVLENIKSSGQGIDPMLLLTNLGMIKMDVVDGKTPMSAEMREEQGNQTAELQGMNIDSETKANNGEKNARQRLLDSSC
Nature of the data set: HOS-induced ATP release assay in EA.hy926 endothelial cells. The data set is classed as cell-based. The protocol: Similar to B16-BL6 cells, a 2–3-fold enhancement of ATP release from EA.hy926 cells was observed upon HOS stimulation (Figure 7E). However, the absolute levels of ATP release were lower in these endothelial cells (around 300 vs 500–600 nM in B16-BL6 cells). As expected, Pbn reduced HOS-induced ATP release from EA.hy926 cells, albeit by a lower fraction than the one observed in B16-BL6 cells (Figure 7E vs7A). The reason for this different efficacy of Pbn is unknown but may be due to its nonspecific action on other ATP release channels or transporters,[68] of which the expression naturally varies among different cell types. […] The water-soluble double-stapled ^10Panx1 peptidomimetic SBL-PX1-206 reduced HOS-induced ATP release from EA.hy926 cells by about 25% at 12.5 μM. […] Stapled and double-stapled ^10Panx1 analogues were also not cytotoxic when tested at 100 and 12.5 μM in EA.hy926 cells (Supporting Information, Figure S8).
Triplicates were performed for each independent experiment.

A further data set concerns B16-BL6 cells. Nature of the data set: LDH cytotoxicity assay in B16-BL6 cells. The data set is classed as cell-based, mouse. Particulars: peptides 100 to 6.25 µM, Pbn 2.5 mM, HOS solution.

Panx1 channels (Mus musculus, UniProt Q9JIP4), sequence (Q9JIP4 whole entry): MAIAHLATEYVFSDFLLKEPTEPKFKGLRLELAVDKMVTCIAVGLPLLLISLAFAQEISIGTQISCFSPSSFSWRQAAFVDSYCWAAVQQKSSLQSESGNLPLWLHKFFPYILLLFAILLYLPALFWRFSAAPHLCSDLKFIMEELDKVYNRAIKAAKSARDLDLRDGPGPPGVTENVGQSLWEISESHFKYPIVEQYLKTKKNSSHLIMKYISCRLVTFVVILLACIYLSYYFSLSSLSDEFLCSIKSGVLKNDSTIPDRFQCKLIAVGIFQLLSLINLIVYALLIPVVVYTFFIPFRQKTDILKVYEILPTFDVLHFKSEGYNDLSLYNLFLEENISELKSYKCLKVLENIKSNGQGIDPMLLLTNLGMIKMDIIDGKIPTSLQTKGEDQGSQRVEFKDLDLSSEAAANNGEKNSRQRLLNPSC

On to WRQAAFVDSY, for which, in “human plasma” (cited from earlier work), the cleaved bond entry is given as “Trp74-Arg75; also recorded: Ala78-Phe79”.

In the case of “R-*WRQ**FVD*Y-NH2 (m = 1; n = 4; R = K-Ahx-)”, the cleaved bond entry in the data set “human plasma” (up to 24 h) is listed as “K-Ahx, major, 8 hours”.

Take `CC(=O)N[C@@H](CO)C(=O)N[C@@H](Cc1c[nH]c2ccccc12)C(=O)N[C@@H](CCCNC(=N)N)C(=O)N[C@@H](CCC(N)=O)C(=O)N[C@@H](C)C(=O)N[C@@H]1Cc2cn(nn2)CCCC[C@@H](C(=O)N[C@@H](Cc2ccc(O)cc2)C(N)=O)NC(=O)[C@H](CC(=O)O)NC(=O)[C@H](C(C)C)NC(=O)[C@H](Cc2ccccc2)NC1=O`: the helicity in “circular dichroism” came out at 7%.

As to `CC(=O)N[C@@H](CO)C(=O)N[C@@H](Cc1c[nH]c2ccccc12)C(=O)N[C@@H](CCCNC(=N)N)C(=O)N[C@@H](CCC(N)=O)C(=O)N[C@@H](C)C(=O)N[C@@H](C)C(=O)N[C@H]1Cc2cn(nn2)CCCC[C@@H](C(N)=O)NC(=O)[C@H](CO)NC(=O)[C@H](CC(=O)O)NC(=O)[C@H](C(C)C)NC1=O` (Ac-SWRQAA[Pra]VDS[Lys(N3)]-NH2; triazole 7-11), the helicity in “circular dichroism” is 37%.

Regarding `CC(=O)N[C@@H](CO)C(=O)N[C@@H](Cc1c[nH]c2ccccc12)C(=O)N[C@@H](CCCNC(=N)N)C(=O)N[C@@H](CCC(N)=O)C(=O)N[C@@H](C)C(=O)N[C@H]1CCCCn2cc(nn2)C[C@@H](C(=O)N[C@@H](Cc2ccc(O)cc2)C(N)=O)NC(=O)[C@H](CC(=O)O)NC(=O)[C@H](C(C)C)NC(=O)[C@H](Cc2ccccc2)NC1=O` (Ac-SWRQA[Lys(N3)]FVD[Pra]Y-NH2; triazole 6-10), in “circular dichroism”, the helicity amounted to 32%.

`CC(=O)N[C@H]1CCCCn2cc(nn2)C[C@@H](C(=O)N[C@@H](C)C(=O)N[C@@H](Cc2ccccc2)C(=O)N[C@H](C(=O)N[C@@H](CC(=O)O)C(=O)N[C@@H](CO)C(=O)N[C@@H](Cc2ccc(O)cc2)C(N)=O)C(C)C)NC(=O)[C@H](CCC(N)=O)NC(=O)[C@H](CCCNC(=N)N)NC(=O)[C@H](Cc2c[nH]c3ccccc23)NC1=O` (Ac-[Lys(N3)]WRQ[Pra]AFVDSY-NH2; triazole 1-5) registered a helicity in the data set “circular dichroism” of 20%.

In “circular dichroism”, `CC(=O)N[C@@H](CO)C(=O)N[C@@H](Cc1c[nH]c2ccccc12)C(=O)N[C@@H](CCCNC(=N)N)C(=O)N[C@@H](CCC(N)=O)C(=O)N[C@@H](C)C(=O)N[C@@H](C)C(=O)N[C@H]1Cc2cn(nn2)CCC[C@@H](C(N)=O)NC(=O)[C@H](CO)NC(=O)[C@H](CC(=O)O)NC(=O)[C@H](C(C)C)NC1=O` (Ac-SWRQAA[Pra]VDS[Orn(N3)]-NH2; triazole 7-11) yielded a helicity of 6%.

With `CC(C)[C@H](NC(=O)[C@H](Cc1ccccc1)NC(=O)[C@H](C)NC(=O)[C@H](C)NC(=O)[C@H](CCC(N)=O)NC(=O)[C@H](CCCNC(=N)N)NC(=O)[C@@H](N)Cc1c[nH]c2ccccc12)C(=O)N[C@@H](CC(=O)O)C(=O)N[C@@H](CO)C(=O)N[C@@H](Cc1ccc(O)cc1)C(=O)O` [^10Panx1, WRQAAFVDSY] (H-WRQAAFVDSY-OH), the inhibition (commonly the relative decrease from the control value, in per cent) at 100 µM at Panx1 channels [1] worked out at 19%; at Panx1 channels [2] (EA.hy 926, read-out: % ATP release inhibition at 100µM (in EA.hy926 cells)) it was 24%. Further, in the data set on B16-BL6 cells, the “cytotoxicity (extracellular LDH)” value is reported as “no cytotoxicity”.

`CC(=O)N[C@@H](CO)C(=O)N[C@@H](Cc1c[nH]c2ccccc12)C(=O)N[C@@H](CCCNC(=N)N)C(=O)N[C@@H](CCC(N)=O)C(=O)N[C@@H](C)C(=O)N[C@H]1CCc2cn(nn2)CCCC[C@@H](C(=O)N[C@@H](Cc2ccc(O)cc2)C(N)=O)NC(=O)[C@H](CC(=O)O)NC(=O)[C@H](C(C)C)NC(=O)[C@H](Cc2ccccc2)NC1=O` (Ac-SWRQA[Hpra]FVD[Lys(N3)]Y-NH2; triazole 6-10) came in with a helicity in “circular dichroism” of 28%.

For Ac-SWRQA*FVD*Y-NH2, the cleaved bond entry in “human plasma” (up to 24 h) is on record as “R-Q, major; also recorded: A-*, major”.

The molecule `CC(=O)N[C@H]1Cc2cn(nn2)CCC[C@@H](C(=O)N[C@@H](C)C(=O)N[C@@H](Cc2ccccc2)C(=O)N[C@H](C(=O)N[C@@H](CC(=O)O)C(=O)N[C@@H](CO)C(=O)N[C@@H](Cc2ccc(O)cc2)C(N)=O)C(C)C)NC(=O)[C@H](CCC(N)=O)NC(=O)[C@H](CCCNC(=N)N)NC(=O)[C@H](Cc2c[nH]c3ccccc23)NC1=O` (Ac-[Pra]WRQ[Orn(N3)]AFVDSY-NH2; triazole 1-5) came in with a helicity in “circular dichroism” of 14%.

`CC(C)[C@H](NC(=O)[C@H](Cc1ccccc1)NC(=O)[C@H](C)NC(=O)[C@H](C)NC(=O)[C@H](CCC(N)=O)NC(=O)[C@H](CCCNC(=N)N)NC(=O)[C@H](Cc1c[nH]c2ccccc12)NC(=O)CCCCCNC(=O)[C@@H](N)CCCCN)C(=O)N[C@@H](CC(=O)O)C(=O)N[C@@H](CO)C(=O)N[C@@H](Cc1ccc(O)cc1)C(=O)O` [SBL-PX1-214] (H-K[Ahx]WRQAAFVDSY-OH): on Panx1 channels [2] (EA.hy 926, 100 µM, 30 min HOS stimulation, read-out: % ATP release inhibition at 100µM (in EA.hy926 cells)), the inhibition at 100 µM came to 30%.

Consider `CC(=O)N[C@H]1CCc2cn(nn2)CCCC[C@@H](C(=O)N[C@@H](C)C(=O)N[C@@H](Cc2ccccc2)C(=O)N[C@H](C(=O)N[C@@H](CC(=O)O)C(=O)N[C@@H](CO)C(=O)N[C@@H](Cc2ccc(O)cc2)C(N)=O)C(C)C)NC(=O)[C@H](CCC(N)=O)NC(=O)[C@H](CCCNC(=N)N)NC(=O)[C@H](Cc2c[nH]c3ccccc23)NC1=O` (Ac-[Hpra]WRQ[Lys(N3)]AFVDSY-NH2; triazole 1-5), for which the helicity in the data set “circular dichroism” worked out at 26%.

`CC(=O)N[C@@H](CO)C(=O)N[C@@H](Cc1c[nH]c2ccccc12)C(=O)N[C@@H](CCCNC(=N)N)C(=O)N[C@@H](CCC(N)=O)C(=O)N[C@@H](C)C(=O)N[C@H]1Cc2cn(nn2)CCC[C@@H](C(=O)N[C@@H](Cc2ccc(O)cc2)C(N)=O)NC(=O)[C@H](CC(=O)O)NC(=O)[C@H](C(C)C)NC(=O)[C@H](Cc2ccccc2)NC1=O` (Ac-SWRQA[Pra]FVD[Orn(N3)]Y-NH2; triazole 6-10) gave a helicity in “circular dichroism” of 17%.

In the data set “circular dichroism”, `CC(=O)N[C@@H](CO)C(=O)N[C@@H](Cc1c[nH]c2ccccc12)C(=O)N[C@@H](CCCNC(=N)N)C(=O)N[C@@H](CCC(N)=O)C(=O)N[C@@H](C)C(=O)N[C@@H](C)C(=O)N[C@@H](Cc1ccccc1)C(=O)N[C@H]1Cc2cn(nn2)CCC[C@@H](C(N)=O)NC(=O)[C@H](Cc2ccc(O)cc2)NC(=O)[C@H](CO)NC(=O)[C@H](CC(=O)O)NC1=O` (Ac-SWRQAAF[Pra]DSY[Orn(N3)]-NH2; triazole 8-12) registered a helicity of 12%.

`CC(=O)N[C@@H]1Cc2cn(nn2)CCCC[C@@H](C(=O)N[C@@H](C)C(=O)N[C@@H](Cc2ccccc2)C(=O)N[C@H](C(=O)N[C@@H](CC(=O)O)C(=O)N[C@@H](CO)C(=O)N[C@@H](Cc2ccc(O)cc2)C(N)=O)C(C)C)NC(=O)[C@H](CCC(N)=O)NC(=O)[C@H](CCCNC(=N)N)NC(=O)[C@H](Cc2c[nH]c3ccccc23)NC1=O`: the helicity in “circular dichroism” came out at 18%.

On to `CC(=O)N[C@@H](CO)C(=O)N[C@@H](Cc1c[nH]c2ccccc12)C(=O)N[C@@H](CCCNC(=N)N)C(=O)N[C@@H](CCC(N)=O)C(=O)N[C@@H](C)C(=O)N[C@@H](C)C(=O)N[C@@H](Cc1ccccc1)C(=O)N[C@H]1Cc2cn(nn2)CCCC[C@@H](C(N)=O)NC(=O)[C@H](Cc2ccc(O)cc2)NC(=O)[C@H](CO)NC(=O)[C@H](CC(=O)O)NC1=O` (Ac-SWRQAAF[Pra]DSY[Lys(N3)]-NH2; triazole 8-12), for which, in “circular dichroism”, the helicity came to 30%.

As to Ac-*WRQ*AFVDSY-NH2, in the data set “human plasma” (up to 24 h), the cleaved bond result was “A-F, major; also recorded: D-S, major” and the not cleaved entry is “amide bonds within the macrocycle remained intact for several hours”.
